Test results: paper PMC4405707

Molecular target: TARP γ-2 (rat) (UniProt Q71RJ2)
Test: co-IP; GluA2 variants transfected into HEK293T cells stably expressing TARP γ-2; proteins extracted under mild detergent conditions; IP with an anti-γ-2 antibody, blot probed with polyclonal GluA2 antibody; amounts normalized to the input

Sequence of TARP γ-2 (rat) (Q71RJ2 whole entry): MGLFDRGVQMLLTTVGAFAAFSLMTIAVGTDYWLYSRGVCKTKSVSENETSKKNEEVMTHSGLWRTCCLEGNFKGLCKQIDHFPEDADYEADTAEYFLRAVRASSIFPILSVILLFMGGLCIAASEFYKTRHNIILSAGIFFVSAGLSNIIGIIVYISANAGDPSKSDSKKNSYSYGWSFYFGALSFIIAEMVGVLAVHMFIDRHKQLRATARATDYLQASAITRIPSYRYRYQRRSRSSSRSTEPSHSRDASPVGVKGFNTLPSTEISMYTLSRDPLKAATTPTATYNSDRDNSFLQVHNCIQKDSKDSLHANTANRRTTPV
Sequence of GluA2i-ΔNTD (flip, R607) (P19491 other isoform, or with tags, fused parts or gaps, stated change not applied): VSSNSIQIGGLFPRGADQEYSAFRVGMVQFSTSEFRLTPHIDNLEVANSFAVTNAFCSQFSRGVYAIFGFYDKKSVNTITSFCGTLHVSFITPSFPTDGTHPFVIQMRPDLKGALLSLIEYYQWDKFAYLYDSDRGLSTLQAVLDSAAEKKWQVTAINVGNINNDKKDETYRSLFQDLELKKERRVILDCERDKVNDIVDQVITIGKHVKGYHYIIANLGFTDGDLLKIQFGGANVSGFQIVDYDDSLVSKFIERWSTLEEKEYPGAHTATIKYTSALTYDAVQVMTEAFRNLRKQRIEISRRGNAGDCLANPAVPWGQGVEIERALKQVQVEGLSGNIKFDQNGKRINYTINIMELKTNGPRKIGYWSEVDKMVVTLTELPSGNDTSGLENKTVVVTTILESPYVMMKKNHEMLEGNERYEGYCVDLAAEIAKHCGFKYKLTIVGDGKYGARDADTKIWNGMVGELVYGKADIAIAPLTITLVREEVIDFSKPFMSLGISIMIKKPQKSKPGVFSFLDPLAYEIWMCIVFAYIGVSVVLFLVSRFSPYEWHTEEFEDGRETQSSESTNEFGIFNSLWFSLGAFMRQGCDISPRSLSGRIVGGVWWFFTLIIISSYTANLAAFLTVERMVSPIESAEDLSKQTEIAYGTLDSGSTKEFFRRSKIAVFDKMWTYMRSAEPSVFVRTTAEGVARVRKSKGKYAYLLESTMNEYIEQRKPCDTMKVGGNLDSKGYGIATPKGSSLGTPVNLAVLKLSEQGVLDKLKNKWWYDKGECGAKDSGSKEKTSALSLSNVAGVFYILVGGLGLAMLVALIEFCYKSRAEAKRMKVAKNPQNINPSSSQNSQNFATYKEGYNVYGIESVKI
Sequence of GluA2o-R607 ΔNTD (flop Δ-NTD mutant) (P19491 other isoform, or with tags, fused parts or gaps, stated change not applied): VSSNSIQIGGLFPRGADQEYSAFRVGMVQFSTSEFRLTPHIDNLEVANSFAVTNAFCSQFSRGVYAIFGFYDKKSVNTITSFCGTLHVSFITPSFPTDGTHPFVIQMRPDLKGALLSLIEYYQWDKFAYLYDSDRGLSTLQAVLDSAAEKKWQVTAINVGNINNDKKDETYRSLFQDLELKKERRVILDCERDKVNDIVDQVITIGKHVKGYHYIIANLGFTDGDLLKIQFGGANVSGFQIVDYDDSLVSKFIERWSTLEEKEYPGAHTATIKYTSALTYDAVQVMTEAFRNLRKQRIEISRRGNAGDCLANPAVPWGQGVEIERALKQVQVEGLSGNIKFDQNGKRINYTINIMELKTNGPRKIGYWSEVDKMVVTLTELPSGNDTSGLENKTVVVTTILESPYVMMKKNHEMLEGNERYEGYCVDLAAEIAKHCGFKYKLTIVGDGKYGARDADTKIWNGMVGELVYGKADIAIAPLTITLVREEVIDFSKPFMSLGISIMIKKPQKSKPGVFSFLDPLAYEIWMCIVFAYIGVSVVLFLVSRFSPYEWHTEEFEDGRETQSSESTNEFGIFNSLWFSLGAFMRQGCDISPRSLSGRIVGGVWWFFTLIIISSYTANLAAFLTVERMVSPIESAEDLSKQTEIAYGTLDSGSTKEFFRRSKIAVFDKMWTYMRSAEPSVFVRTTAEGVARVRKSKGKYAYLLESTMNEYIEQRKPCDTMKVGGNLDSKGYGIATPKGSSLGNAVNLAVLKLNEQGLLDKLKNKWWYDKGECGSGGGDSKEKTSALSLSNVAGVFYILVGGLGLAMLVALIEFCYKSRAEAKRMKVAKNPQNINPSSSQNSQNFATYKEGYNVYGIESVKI

fold reduction of coIP by the Q to R switch (ΔNTD R607 against ΔNTD Q607)	ratio of IPed GluA2i WT to GluA2i-ΔNTD, normalized to the input	fold less efficiently precipitated than the flip ΔNTD counterpart	Substance
2.2 fold	2.9 fold	–	GluA2i-ΔNTD (flip, R607) (from UniProt P19491-2 22-883) (receptor)
–	–	2.9 fold	GluA2o-R607 ΔNTD (flop Δ-NTD mutant) (from UniProt P19491 22-883) (receptor)
